{"source": "patent US20140087995A1", "about": "(published 2014)", "binders": {"B1": {"name": "N^ε1-[(4S)-4-carboxy-4-(19-carboxynonadecanoylamino)butanoyl]-[Arg17,Pro21,Pro27]-h-amylin (peptide)", "peptide": "K([γGlu-C20 diacid])CNTATCATQRLANFLRHSSPNFGAIPSSTNVGSNTY-NH2", "modifications": "disulfide 2-7; N-terminus assumed", "SMILES": "CC[C@H](C)[C@H](NC(=O)[C@H](C)NC(=O)CNC(=O)[C@H](Cc1ccccc1)NC(=O)[C@H](CC(N)=O)NC(=O)[C@@H]1CCCN1C(=O)[C@H](CO)NC(=O)[C@H](CO)NC(=O)[C@H](Cc1c[nH]cn1)NC(=O)[C@H](CCCNC(=N)N)NC(=O)[C@H](CC(C)C)NC(=O)[C@H](Cc1ccccc1)NC(=O)[C@H](CC(N)=O)NC(=O)[C@H](C)NC(=O)[C@H](CC(C)C)NC(=O)[C@H](CCCNC(=N)N)NC(=O)[C@H](CCC(N)=O)NC(=O)[C@@H](NC(=O)[C@H](C)NC(=O)[C@@H]1CSSC[C@H](NC(=O)[C@@H](N)CCCCNC(=O)CC[C@H](NC(=O)CCCCCCCCCCCCCCCCCCC(=O)O)C(=O)O)C(=O)N[C@@H](CC(N)=O)C(=O)N[C@@H]([C@@H](C)O)C(=O)N[C@@H](C)C(=O)N[C@@H]([C@@H](C)O)C(=O)N1)[C@@H](C)O)C(=O)N1CCC[C@H]1C(=O)N[C@@H](CO)C(=O)N[C@@H](CO)C(=O)N[C@H](C(=O)N[C@@H](CC(N)=O)C(=O)N[C@H](C(=O)NCC(=O)N[C@@H](CO)C(=O)N[C@@H](CC(N)=O)C(=O)N[C@H](C(=O)N[C@@H](Cc1ccc(O)cc1)C(N)=O)[C@@H](C)O)C(C)C)[C@@H](C)O", "notes": "Synthetic analogue; also called compound 48"}, "B2": {"name": "N^α1-[2-[2-[2-[[2-[2-[2-[[(4S)-4-carboxy-4-(19-carboxynonadecanoylamino)butanoyl]amino]ethoxy]ethoxy]acetyl]amino]ethoxy]ethoxy]acetyl]-[Glu14,Arg17,Pro21,Pro27 … (peptide)", "peptide": "KCNTATCATQRLAEFLRHSSPNFGAIPSSTNVGSNTY", "modifications": "C20 diacid-gGlu-2xOEG acylated on the alpha amino group of the N-terminal residue (Lys 1); disulfide Cys2-Cys7; C-terminal amide", "notes": "Derivative of human amylin; also called compound 19"}, "B3": {"name": "N^α1-[(4S)-4-carboxy-4-(19-carboxynonadecanoylamino)butanoyl]-[Arg17,Pro21,Pro27,Pro31,Glu35]-h-amylin (peptide)", "peptide": "{C20 diacid-γGlu}-KCNTATCATQRLANFLRHSSPNFGAIPSSTPVGSETY-NH2", "modifications": "disulfide 2-7", "SMILES": "CC[C@H](C)[C@H](NC(=O)[C@H](C)NC(=O)CNC(=O)[C@H](Cc1ccccc1)NC(=O)[C@H](CC(N)=O)NC(=O)[C@@H]1CCCN1C(=O)[C@H](CO)NC(=O)[C@H](CO)NC(=O)[C@H](Cc1c[nH]cn1)NC(=O)[C@H](CCCNC(=N)N)NC(=O)[C@H](CC(C)C)NC(=O)[C@H](Cc1ccccc1)NC(=O)[C@H](CC(N)=O)NC(=O)[C@H](C)NC(=O)[C@H](CC(C)C)NC(=O)[C@H](CCCNC(=N)N)NC(=O)[C@H](CCC(N)=O)NC(=O)[C@@H](NC(=O)[C@H](C)NC(=O)[C@@H]1CSSC[C@H](NC(=O)[C@H](CCCCN)NC(=O)CC[C@H](NC(=O)CCCCCCCCCCCCCCCCCCC(=O)O)C(=O)O)C(=O)N[C@@H](CC(N)=O)C(=O)N[C@@H]([C@@H](C)O)C(=O)N[C@@H](C)C(=O)N[C@@H]([C@@H](C)O)C(=O)N1)[C@@H](C)O)C(=O)N1CCC[C@H]1C(=O)N[C@@H](CO)C(=O)N[C@@H](CO)C(=O)N[C@H](C(=O)N1CCC[C@H]1C(=O)N[C@H](C(=O)NCC(=O)N[C@@H](CO)C(=O)N[C@@H](CCC(=O)O)C(=O)N[C@H](C(=O)N[C@@H](Cc1ccc(O)cc1)C(N)=O)[C@@H](C)O)C(C)C)[C@@H](C)O", "notes": "Derivative of human amylin; also called compound 28"}, "B4": {"name": "N^α1-[2-[2-[2-[[2-[2-[2-[[(4S)-4-carboxy-4-(19-carboxynonadecanoylamino)butanoyl]amino]ethoxy]ethoxy]acetyl]amino]ethoxy]ethoxy]acetyl]-[Arg17,Pro21,Pro27]-h-am … (peptide)", "peptide": "B2 peptide with E14N", "modifications": "C20 diacid-gGlu-2xOEG acylated on the alpha amino group of the N-terminal residue (Lys 1); disulfide Cys2-Cys7; C-terminal amide", "notes": "Derivative of human amylin; also called compound 24"}}, "note": "Where a chain is given by its changes, count along the chain named. Numbered stars: 1 amine (or outer) side, 2 acyl side, 3 side chain; on linkers, the order of the positions; unused ones are H or OH. Bridge positions count the residues as written; N and C are the ends. Side chains are listed from the residue outwards. Ends that are not written are not given here. * marks the point of attachment. C20 diacid = O=C(O)CCCCCCCCCCCCCCCCCCC(=O)*; γGlu = O=C(O)[C@H](CCC(=O)[*:2])N[*:1]", "data": [{"molecular_target": "T1, human calcitonin receptor (human, UniProt P30988 25-474)", "T1 construct": "whole, on cells; Assay used cell membranes of the transfected BHK cells; also called hCTR; hCT", "T1 sequence (looked up)": "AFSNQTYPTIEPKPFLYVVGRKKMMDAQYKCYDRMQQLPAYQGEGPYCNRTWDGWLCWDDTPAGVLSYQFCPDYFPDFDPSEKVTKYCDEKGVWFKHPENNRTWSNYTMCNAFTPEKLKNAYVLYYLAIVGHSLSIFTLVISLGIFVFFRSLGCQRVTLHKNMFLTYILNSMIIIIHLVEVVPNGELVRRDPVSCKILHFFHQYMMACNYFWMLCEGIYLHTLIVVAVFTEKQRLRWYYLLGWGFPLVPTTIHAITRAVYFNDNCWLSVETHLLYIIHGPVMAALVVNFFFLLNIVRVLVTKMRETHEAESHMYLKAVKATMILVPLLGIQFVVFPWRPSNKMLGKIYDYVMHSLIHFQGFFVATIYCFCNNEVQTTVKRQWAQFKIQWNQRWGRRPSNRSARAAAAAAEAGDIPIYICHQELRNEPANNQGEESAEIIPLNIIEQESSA", "assay": "ratio IC50 hCTR / IC50 hAmylin-R of the two SPA competition assays; reference: human amylin receptor", "in_short": "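Membranes (35 ng/μL final) + SPA beads, 50 mM Hepes pH 7.4 buffer with 1 mM CaCl2, 5 mM MgCl₂, 0.1% OA, 0.02% Tween20; 120 min, 25° C, shaking; centrifuged, counted; IC₅₀ by one-site binding competition.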", "values": [{"binder": "B1", "Ratio hCT/hAmylin binding": 69.7}]}, {"molecular_target": "T2, rat calcitonin receptor (rat, UniProt P32214 25-516)", "T2 construct": "whole, on cells; Used as membranes prepared from the transfected cells; also called rCTR; rat calcitonin (a) receptor", "T2 sequence (looked up)": "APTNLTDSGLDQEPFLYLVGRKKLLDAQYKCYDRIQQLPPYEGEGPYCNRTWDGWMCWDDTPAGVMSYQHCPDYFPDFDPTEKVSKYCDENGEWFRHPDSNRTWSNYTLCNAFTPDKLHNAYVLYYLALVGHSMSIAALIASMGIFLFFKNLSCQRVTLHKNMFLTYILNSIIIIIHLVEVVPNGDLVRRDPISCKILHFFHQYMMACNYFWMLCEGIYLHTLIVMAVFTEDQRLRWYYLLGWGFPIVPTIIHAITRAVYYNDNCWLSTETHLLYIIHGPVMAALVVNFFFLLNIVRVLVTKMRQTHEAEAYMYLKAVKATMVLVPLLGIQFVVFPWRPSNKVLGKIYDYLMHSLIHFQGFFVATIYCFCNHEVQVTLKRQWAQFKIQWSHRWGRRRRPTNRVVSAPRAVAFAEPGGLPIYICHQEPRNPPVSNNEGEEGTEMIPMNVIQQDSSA", "assay": "ratio IC50 rat calcitonin receptor / IC50 rat amylin receptor (Assays VIII and VI)", "values": [{"binder": "B2", "Ratio rCT/rAmylin binding": 93.6}, {"binder": "B3", "Ratio rCT/rAmylin binding": 44.9}, {"binder": "B4", "Ratio rCT/rAmylin binding": 116}]}, {"molecular_target": "T2, rat calcitonin receptor", "assay": "SPA competition with 125I-calcitonin, membranes of BHK cells with rat calcitonin receptor (Assay VIII)", "units": {"IC50": "nM"}, "values": [{"binder": "B2", "IC50": 95.6}, {"binder": "B3", "IC50": 54.9}, {"binder": "B4", "IC50": 350}]}, {"molecular_target": "T3, rat amylin receptor (rat calcitonin receptor + rat RAMP 3) (rat, UniProt P32214 25-516; Q9JJ73 23-147)", "T3 construct": "whole, on cells; Used as membranes prepared from the transfected cells; also called rAmylin-R; rat amylin 3(a) receptor", "T3 sequence (looked up) 1": "T2 sequence (looked up)", "T3 sequence (looked up) 2": "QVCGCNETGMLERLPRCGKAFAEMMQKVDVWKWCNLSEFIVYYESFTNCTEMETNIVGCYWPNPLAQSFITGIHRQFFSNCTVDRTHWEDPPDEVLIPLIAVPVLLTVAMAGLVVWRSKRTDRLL", "assay": "SPA competition with 125I-rat amylin, membranes of BHK cells with rat calcitonin receptor + rat RAMP3 (Assay VI)", "units": {"IC50": "nM"}, "values": [{"binder": "B2", "IC50": 1.02}, {"binder": "B3", "IC50": 1.22}, {"binder": "B4", "IC50": 3.01}]}, {"molecular_target": "T4, human calcitonin receptor (human, UniProt P30988 25-474)", "T4 construct": "whole, on cells; Used as membranes prepared from the transfected cells (Assay VII); also called hCTR; hCT", "T4 sequence (looked up)": "T1 sequence (looked up)", "assay": "ratio IC50 human calcitonin receptor / IC50 human amylin receptor (Assays VII and V)", "description": "The resulting pellet was resuspended, homogenized and centrifuged (20.000 rpm, 15 min) in a buffer containing 20 mM Na-HEPES and 0.1 mM EDTA (pH 7.4, buffer 2). The resulting pellet was resuspended in buffer 2 and protein concentration was measured (BCA protein Assay, Pierce). The homogenate was kept cold during the whole procedure. The membranes were kept at −80° C. until use. The assay was performed in a 384 well Optiplate (PerkinElmer) in a total volume of 40 ul. Membranes were mixed with SPA beads. Final concentration of membranes 35 ng/μL final and SPA beads was 0.05 mg/well. Test-compounds were dissolved in DMSO and further diluted in assay buffer (50 mM Hepes, pH 7.4, 1 mM CaCl2, 5 mM MgCl₂, 0.1% OA and 0.02% Tween20). […] The final mixture was incubated with shaking at 400 rpm for 120 min at 25° C. prior to centrifugation (1500 rpm, 10 min). Samples were analyzed on TopCounter™ (Packard). The IC₅₀ was calculated using (one site binding competition analysis) GraphPad Prism5 as a measure of receptor affinity.\nMembranes were prepared in the following way; the cells were rinsed with PBS and incubated with Versene for approximately 5 min before harvesting. The cells were flushed with PBS and the cell-suspension was centrifuged for 5 min at 1000 rpm. Cells were homogenized (Ultrathurrax) in a buffer containing 20 mM Na-HEPES and 10 mM EDTA (pH 7.4) and centrifuged at 20.000 rpm for 15 min. The resulting pellet was resuspended, homogenized and centrifuged (20.000 rpm, 15 min) in a buffer containing 20 mM Na-HEPES and 0.1 mM EDTA (pH 7.4, buffer 2). The resulting pellet was resuspended in buffer 2 and protein concentration was measured (BCA protein Assay, Pierce). The homogenate was kept cold during the whole procedure. The membranes were kept at −80° C. until use. Assay was performed in a 384 well Optiplate (PerkinElmer) in a total volume of 40 ul. Membranes were mixed with SPA beads.", "values": [{"binder": "B2", "Ratio hCT/hAmylin binding": 36.7}, {"binder": "B3", "Ratio hCT/hAmylin binding": 20.5}, {"binder": "B4", "Ratio hCT/hAmylin binding": 90}]}, {"molecular_target": "T1, human calcitonin receptor", "assay": "SPA radioligand competition (125I-calcitonin), membranes of BHK cells with human calcitonin receptor", "in_short": "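BHK hCTR membranes 35 ng/μL + SPA beads 0.05 mg/well; buffer 50 mM Hepes pH 7.4, 1 mM CaCl2, 5 mM MgCl₂, 0.1% OA, 0.02% Tween20. 120 min, 25° C., shaking. Scintillation count; IC50 by one-site binding competition.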", "units": {"IC50": "nM"}, "values": [{"binder": "B1", "IC50": 30.9}]}]}
